Experimental data reported in US20240425579A1.

Tests used:
[1] = target: T1, biotinylated hu-PDL2 (human) (UniProt Q9BQ51); assay: ELISA: construct coated at 1 µg/mL, varying biotinylated hu-PDL2, streptavidin-HRP
T1 sequence (biotinylated, looked up): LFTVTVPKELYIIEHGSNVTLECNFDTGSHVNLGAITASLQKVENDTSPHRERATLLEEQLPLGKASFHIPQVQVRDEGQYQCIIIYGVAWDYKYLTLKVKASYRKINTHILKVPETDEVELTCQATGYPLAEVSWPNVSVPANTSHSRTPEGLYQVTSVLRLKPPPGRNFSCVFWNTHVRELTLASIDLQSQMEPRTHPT

[2] = target: T1, biotinylated hu-PDL2 (human); assay: ELISA: varying concentrations of construct coated, fixed biotinylated hu-PDL2 (500 ng/mL)

wild type PD1 construct (wild-type PD1 ECD comparator of anti-IL-23-PD1ecd), sequence (heavy, part): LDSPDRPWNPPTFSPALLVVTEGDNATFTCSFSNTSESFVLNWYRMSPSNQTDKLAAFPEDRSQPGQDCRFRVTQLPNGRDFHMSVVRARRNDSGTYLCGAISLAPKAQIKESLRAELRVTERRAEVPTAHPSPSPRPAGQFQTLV

wild type PD1 construct (wild-type PD1 ECD comparator of anti-IL-23-PD1ecd)
EC50 [1]: 0.131 µM
EC50 [2]: 6 µM
